The source of these data is PMC8349458.

The assay addresses ACE2-Fc-TD. As to the kind of experiment: SPR. Background: In SPR one partner is held on a chip, and binding of the other changes the refractive index at the surface.

“SARS-CoV-2 S1 domain, B.1.1.7 (alpha variant) (from UniProt P0DTC2 14-681) (domain or fragment)” displayed a Half-life (ln2/kd) (s (from ln2/kd)) of 1190 and a dissociation constant Kd of 1.73 nM.

“SARS-CoV-2 S1 domain, B.1.351 (beta variant) (from UniProt P0DTC2 14-681) (domain or fragment)” registered a Half-life (ln2/kd) (s (from ln2/kd)) of 454.

As to “SARS-CoV-2 S1 domain, D614G (from UniProt P0DTC2 14-681) (domain or fragment)”, the Kd amounted to 6.91 nM.

As a reminder, the Kd is the free concentration of one partner at which half of the binding sites on the other are occupied at equilibrium, for simple one-to-one binding.
